Consider seven sequences from the supplement of paper PMC5998384.

The subject of series [1] is HeLa Kyoto. As to the kind of experiment: solubility in G1/S (NP-40 vs SDS abundance) (log2 ratio); higher = more soluble. The conditions noted are these: cell cycle stage: G1/S.
The test system of series [2] is HeLa Kyoto. As to the kind of experiment: melting temperature (median over replicates), in situ; higher = more thermally stable.
In series [3] the test system is HeLa Kyoto. As to the kind of experiment: solubility change mitosis vs G1/S (difference of NP-40 vs SDS log2 ratios) (log2 ratio difference); higher = more soluble in mitosis.
For series [4], the system named is HeLa Kyoto. As to the kind of experiment: thermal stability score vs G1/S (z-score of summed log2 fold changes over temperatures); higher = more thermally stable than in G1/S.
Where [5] appears, read: cell cycle stage: early G1 (4.5 h after nocodazole release).
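Throughout, for melting temperature (median over replicates), in situ: HeLa Kyoto cells synchronized by double thymidine or nocodazole block, proteins quantified by TMT10plex mass spectrometry, three independent biological replicates.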
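Throughout, for solubility change mitosis vs G1/S (difference of NP-40 vs SDS log2 ratios): synchronized HeLa Kyoto cells (double thymidine block for G1/S, nocodazole release for mitosis), protein amounts in NP-40 versus SDS lysates quantified by mass spectrometry, three biological replicates.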
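Throughout, for solubility in G1/S (NP-40 vs SDS abundance): HeLa Kyoto cells arrested at G1/S by double thymidine block, proteins quantified by TMT10plex mass spectrometry in mild NP-40 versus SDS extracts, three biological replicates.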
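Throughout, for thermal stability score vs G1/S (z-score of summed log2 fold changes over temperatures): synchronized HeLa Kyoto cells, proteins quantified by TMT10plex mass spectrometry, three biological replicates, mitosis taken 0.5 h after nocodazole release, G1/S directly after double thymidine block.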

With “MSDFDEFERQLNENKQERDKENRHRKRSHSRSRSRDRKRRSRSRDRRNRDQRSASRDRRRRSKPLTRGAKEEHGGLIRSPRHEKKKKVRKYWDVPPPGFEHITPMQYKAMQAAGQIPATALLPTMTPDGLAVTPTPVPVVGSQMTRQARRLYVGNIPFGITEEAMMDFFNAQMRLGGLTQAPGNPVLAVQINQDKNFAFLEFRSVDETTQAMAFDGIIFQGQSLKIRRPHDYQPLPGMSENPSVYVPGVVSTVVPDSAHKLFIGGLPNYLNDDQVKELLTSFGPLKAFNLVKDSATGLSKGYAFCEYVDINVTDQAIAGLNGMQLGDKKLLVQRASVGAKNATLVSPPSTINQTPVTLQVPGLMSSQVQMGGHPTEVLCLMNMVLPEELLDDEEYEEIVEDVRDECSKYGLVKSIEIPRPVDGVEVPGCGKIFVEFTSVFDCQKAMQGLTGRKFANRVVVTKYCDPDSYHRRDFW [U2AF2]”, in the series with HeLa Kyoto [1], the “solubility in G1/S (log2)” value is -0.395. For the same sequence, the melting temperature came out at 49.7 °C in the series with HeLa Kyoto [2] (cell cycle stage: G1/S) and 50.5 °C with HeLa Kyoto [2] (cell cycle stage: mitosis). Also, in the series with HeLa Kyoto [3], the “solubility change mitosis (log2)” value came to 0.177. Also, the thermal stability score worked out at 1.65 in the series on HeLa Kyoto [4] (setting [5]) and 5.33 in the series with HeLa Kyoto [4] (cell cycle stage: mitosis).
Turning to “MSDGDYDYLIKFLALGDSGVGKTSVLYQYTDGKFNSKFITTVGIDFREKRVVYRASGPDGATGRGQRIHLQLWDTAGQERFRSLTTAFFRDAMGFLLLFDLTNEQSFLNVRNWISQLQMHAYCENPDIVLCGNKSDLEDQRVVKEEEAIALAEKYGIPYFETSAANGTNISQAIEMLLDLIMKRMERCVDKSWIPEGVVRSNGHASTDQLSEEKEKGACGC [RAB27A]”, the “solubility in G1/S (log2)” value in the series on HeLa Kyoto [1] is 0.222. In addition, the results for the melting temperature with HeLa Kyoto [2] (cell cycle stage: G1/S) and with HeLa Kyoto [2] (cell cycle stage: mitosis) were 52.7 °C and 53.9 °C, respectively. The “solubility change mitosis (log2)” value in the series with HeLa Kyoto [3] is -0.0891. For the same sequence, the thermal stability score was 2.41 in the series on HeLa Kyoto [4] (setting [5]) and 2.1 in the series with HeLa Kyoto [4] (cell cycle stage: mitosis).
Turning to “MSDHGDVSLPPEDRVRALSQLGSAVEVNEDIPPRRYFRSGVEIIRMASIYSEEGNIEHAFILYNKYITLFIEKLPKHRDYKSAVIPEKKDTVKKLKEIAFPKAEELKAELLKRYTKEYTEYNEEKKKEAEELARNMAIQQELEKEKQRVAQQKQQQLEQEQFHAFEEMIRNQELEKERLKIVQEFGKVDPGLGGPLVPDLEKPSLDVFPTLTVSSIQPSDCHTTVRPAKPPVVDRSLKPGALSNSESIPTIDGLRHVVVPGRLCPQFLQLASANTARGVETCGILCGKLMRNEFTITHVLIPKQSAGSDYCNTENEEELFLIQDQQGLITLGWIHTHPTQTAFLSSVDLHTHCSYQMMLPESVAIVCSPKFQETGFFKLTDHGLEEISSCRQKGFHPHSKDPPLFCSCSHVTVVDRAVTITDLR [STAMBP]”, the “solubility in G1/S (log2)” value in the series on HeLa Kyoto [1] worked out at 0.276. Besides, the melting temperature with HeLa Kyoto [2] (cell cycle stage: G1/S) stood at 48.6 °C; with HeLa Kyoto [2] (cell cycle stage: mitosis) it was 49.7 °C. Moreover, in the series on HeLa Kyoto [3], the “solubility change mitosis (log2)” value was -0.118. In addition, the values for the thermal stability score in the series on HeLa Kyoto [4] (setting [5]) and in the series on HeLa Kyoto [4] (cell cycle stage: mitosis) were 0.214 and 0.921, respectively.
For “MSDIGDWFRSIPAITRYWFAATVAVPLVGKLGLISPAYLFLWPEAFLYRFQIWRPITATFYFPVGPGTGFLYLVNLYFLYQYSTRLETGAFDGRPADYLFMLLFNWICIVITGLAMDMQLLMIPLIMSVLYVWAQLNRDMIVSFWFGTRFKACYLPWVILGFNYIIGGSVINELIGNLVGHLYFFLMFRYPMDLGGRNFLSTPQFLYRWLPSRRGGVSGFGVPPASMRRAADQNGGGGRHNWGQGFRLGDQ [DERL1]”, in the series on HeLa Kyoto [1], the “solubility in G1/S (log2)” value is 0.00239. Moreover, the melting temperature came to 51.6 °C with HeLa Kyoto [2] (cell cycle stage: G1/S) and 55.3 °C in the series with HeLa Kyoto [2] (cell cycle stage: mitosis). Also, the “solubility change mitosis (log2)” value with HeLa Kyoto [3] is -0.273. Also, the thermal stability score is -0.109 in the series with HeLa Kyoto [4] (setting [5]) and -0.882 with HeLa Kyoto [4] (cell cycle stage: mitosis).
In the case of “MSDKSELKAELERKKQRLAQIREEKKRKEEERKKKETDQKKEAVAPVQEESDLEKKRREAEALLQSMGLTPESPIVFSEYWVPPPMSPSSKSVSTPSEAGSQDSGDGAVGSRTLHWDTDPSVLQLHSDSDLGRGPIKLGMAKITQVDFPPREIVTYTKETQTPVMAQPKEDEEEDDDVVAPKPPIEPEEEKTLKKDEENDSKAPPHELTEEEKQQILHSEEFLSFFDHSTRIVERALSEQINIFFDYSGRDLEDKEGEIQAGAKLSLNRQFFDERWSKHRVVSCLDWSSQYPELLVASYNNNEDAPHEPDGVALVWNMKYKKTTPEYVFHCQSAVMSATFAKFHPNLVVGGTYSGQIVLWDNRSNKRTPVQRTPLSAAAHTHPVYCVNVVGTQNAHNLISISTDGKICSWSLDMLSHPQDSMELVHKQSKAVAVTSMSFPVGDVNNFVVGSEEGSVYTACRHGSKAGISEMFEGHQGPITGIHCHAAVGAVDFSHLFVTSSFDWTVKLWTTKNNKPLYSFEDNADYVYDVMWSPTHPALFACVDGMGRLDLWNLNNDTEVPTASISVEGNPALNRVRWTHSGREIAVGDSEGQIVIYDVGEQIAVPRNDEWARFGRTLAEINANRADAEEEAATRIPA [DYNC1I2]”, the “solubility in G1/S (log2)” value in the series with HeLa Kyoto [1] was -0.0277. Moreover, the melting temperature in the series with HeLa Kyoto [2] (cell cycle stage: G1/S) amounted to 53.2 °C; in the series on HeLa Kyoto [2] (cell cycle stage: mitosis), 52.3 °C. Also, the “solubility change mitosis (log2)” value in the series with HeLa Kyoto [3] was -0.0123. Moreover, the results for the thermal stability score in the series on HeLa Kyoto [4] (setting [5]) and with HeLa Kyoto [4] (cell cycle stage: mitosis) were -2.66 and -3.05, respectively.
Consider “MSDLRITEAFLYMDYLCFRALCCKGPPPARPEYDLVCIGLTGSGKTSLLSKLCSESPDNVVSTTGFSIKAVPFQNAILNVKELGGADNIRKYWSRYYQGSQGVIFVLDSASSEDDLEAARNELHSALQHPQLCTLPFLILANHQDKPAARSVQEIKKYFELEPLARGKRWILQPCSLDDMDALKDSFSQLINLLEEKDHEAVRM [ARL15]”, for which, in the series on HeLa Kyoto [1], the “solubility in G1/S (log2)” value was 0.118. In the series on HeLa Kyoto [2] (cell cycle stage: mitosis), this sequence showed a melting temperature of 53.2 °C. Further, the “solubility change mitosis (log2)” value with HeLa Kyoto [3] is -0.114. Also, the thermal stability score is -0.792 with HeLa Kyoto [4] (setting [5]) and 0.438 with HeLa Kyoto [4] (cell cycle stage: mitosis).
For the sequence “MSDNPPRMEVCPYCKKPFKRLKSHLPYCKMIGPTIPTDQKVYQSKPATLPRAKKMKGPIKDLIKAKGKELETENEERNSKLVVDKPEQTVKTFPLPAVGLERAATTKADKDIKNPIQPSFKMLKNTKPMTTFQEETKAQFYASEKTSPKRELAKDLPKSGESRCNPSEAGASLLVGSIEPSLSNQDRKYSSTLPNDVQTTSGDLKLDKIDPQRQELLVKLLDVPTGDCHISPKNVSDGVKRVRTLLSNERDSKGRDHLSGVPTDVTVTETPEKNTESLILSLKMSSLGKIQVMEKQEKGLTLGVETCGSKGNAEKSMSATEKQERTVMSHGCENFNTRDSVTGKESQGERPHLSLFIPRETTYQFHSVSQSSSQSLASLATTFLQEKKAEAQNHHCVPDVKALMESPEGQLSLEPKSDSQFQASHTGCQSPLCSAQRHTPQSPFTNHAAAAGRKTLRSCMGLEWFPELYPGYLGLGVLPGKPQCWNAMTQKPQLISPQGERLSQVSLLERSSTHIRSLEPPAGLTTSNFSLMRLLGAVQKGWIRCNTTIRKSGFGGITMLFTGYFVLCCSWSFRRLKKLCRPLPWKSTVPPCIGVAKTTGDCRSKTCLD [C17ORF80]”, the “solubility in G1/S (log2)” value in the series on HeLa Kyoto [1] is 0.0361. The melting temperature is 54.5 °C with HeLa Kyoto [2] (cell cycle stage: G1/S) and 54 °C in the series with HeLa Kyoto [2] (cell cycle stage: mitosis). In addition, the “solubility change mitosis (log2)” value in the series with HeLa Kyoto [3] was -0.00249. In addition, the thermal stability score is -2.69 in the series with HeLa Kyoto [4] (setting [5]) and -2.84 with HeLa Kyoto [4] (cell cycle stage: mitosis).
